Assay results from publication PMC9482650, “Quantitative fragmentomics allow affinity mapping of interactomes” (Nature Communications, 2022).

T1: APBA2_1, Q99767
T1 sequence (Q99767 563-664, limits assumed, looked up): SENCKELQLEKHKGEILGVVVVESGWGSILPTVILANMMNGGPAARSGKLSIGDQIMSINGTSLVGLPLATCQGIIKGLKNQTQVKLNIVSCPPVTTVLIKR

T2: APBA3_1, O96018
T2 sequence (O96018 389-490, limits assumed, looked up): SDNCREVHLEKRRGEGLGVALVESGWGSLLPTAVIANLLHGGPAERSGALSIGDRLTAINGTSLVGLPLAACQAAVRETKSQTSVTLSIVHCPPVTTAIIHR

T3: DFNB31_2, Q9P202
T3 sequence (Q9P202 274-371, limits assumed, looked up): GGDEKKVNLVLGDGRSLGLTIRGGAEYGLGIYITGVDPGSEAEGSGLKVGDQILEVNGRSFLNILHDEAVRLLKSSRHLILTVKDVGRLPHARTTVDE

T4: DFNB31_3, Q9P202
T4 sequence (Q9P202 811-907, limits assumed, looked up): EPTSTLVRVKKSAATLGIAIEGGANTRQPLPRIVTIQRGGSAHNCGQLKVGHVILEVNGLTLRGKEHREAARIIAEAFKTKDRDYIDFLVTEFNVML

T5: DLG3_2, Q92796
T5 sequence (Q92796 221-321, limits assumed, looked up): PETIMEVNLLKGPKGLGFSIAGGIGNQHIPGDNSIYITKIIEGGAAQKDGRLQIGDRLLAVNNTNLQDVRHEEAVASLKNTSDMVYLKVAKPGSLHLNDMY

T6: DLG3_3, Q92796
T6 sequence (Q92796 374-475, limits assumed, looked up): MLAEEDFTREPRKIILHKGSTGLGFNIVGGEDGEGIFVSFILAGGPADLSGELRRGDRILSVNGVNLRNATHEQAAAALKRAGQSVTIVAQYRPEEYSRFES

T7: HTRA3, P83110
T7 sequence (P83110 354-453, limits assumed, looked up): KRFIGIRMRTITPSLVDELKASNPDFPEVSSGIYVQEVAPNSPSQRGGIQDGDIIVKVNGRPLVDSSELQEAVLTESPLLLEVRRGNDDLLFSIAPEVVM

T8: MPP6, Q9NZW5
T8 sequence (Q9NZW5 125-219, limits assumed, looked up): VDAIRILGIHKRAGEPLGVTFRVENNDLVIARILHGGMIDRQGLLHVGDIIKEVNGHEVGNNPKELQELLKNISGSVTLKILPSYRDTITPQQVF

T9: PARD3B_1, Q8TEW8
T9 sequence (Q8TEW8 196-299, limits assumed, looked up): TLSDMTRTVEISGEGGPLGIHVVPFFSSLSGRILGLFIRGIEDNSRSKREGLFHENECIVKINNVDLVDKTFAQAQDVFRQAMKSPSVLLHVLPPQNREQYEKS

T10: SNTA1, Q13424
T10 sequence (Q13424 82-180, limits assumed, looked up): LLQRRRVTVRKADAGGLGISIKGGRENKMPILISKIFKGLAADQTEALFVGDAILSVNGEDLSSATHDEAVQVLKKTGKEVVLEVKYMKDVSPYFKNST

T11: SNTG1, Q9NSN8
T11 sequence (Q9NSN8 52-150, limits assumed, looked up): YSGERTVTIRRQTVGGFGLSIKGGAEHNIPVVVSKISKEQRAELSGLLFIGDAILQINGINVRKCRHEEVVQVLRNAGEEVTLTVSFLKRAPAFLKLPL


Legend:
Experiment in all cases: holdup assay
Design in all cases: key: below the threshold = too weak to quantify, mostly under pKd 3.1 to 4
Settings in all cases: plain residues with an end cap or a label only (N-terminal biotin on a linker: ado-ado)
APBA2_1, Q99767 = target: T1, APBA2_1, Q99767
APBA3_1, O96018 = target: T2, APBA3_1, O96018
DFNB31_2, Q9P202 = target: T3, DFNB31_2, Q9P202
DFNB31_3, Q9P202 = target: T4, DFNB31_3, Q9P202
DLG3_2, Q92796 = target: T5, DLG3_2, Q92796
DLG3_3, Q92796 = target: T6, DLG3_3, Q92796
DLG4_3, P78352 = target: DLG4_3, P78352
GRASP, Q7Z6J2 = target: GRASP, Q7Z6J2
GRIP2_5, Q9C0E4 = target: GRIP2_5, Q9C0E4
HTRA1, Q92743 = target: HTRA1, Q92743
HTRA3, P83110 = target: T7, HTRA3, P83110
IL16_1, Q14005 = target: IL16_1, Q14005
IL16_4, Q14005 = target: IL16_4, Q14005
Inadl_2, Q8NI35 = target: Inadl_2, Q8NI35
Inadl_6, Q8NI35 = target: Inadl_6, Q8NI35
Inadl_9, Q8NI35 = target: Inadl_9, Q8NI35
LAP2, Q96RT1 = target: LAP2, Q96RT1
LNX1_2, Q8TBB1 = target: LNX1_2, Q8TBB1
MAGI2_4, Q86UL8 = target: MAGI2_4, Q86UL8
MAST1, Q9Y2H9 = target: MAST1, Q9Y2H9
MPP6, Q9NZW5 = target: T8, MPP6, Q9NZW5
NHERF2_2, Q15599 = target: NHERF2_2, Q15599
PARD3B_1, Q8TEW8 = target: T9, PARD3B_1, Q8TEW8
SCRIB_1, Q14160 = target: SCRIB_1, Q14160
SNTA1, Q13424 = target: T10, SNTA1, Q13424
SNTG1, Q9NSN8 = target: T11, SNTG1, Q9NSN8

Chain of NHERF2_2, Q15599 (Q15599 142-238): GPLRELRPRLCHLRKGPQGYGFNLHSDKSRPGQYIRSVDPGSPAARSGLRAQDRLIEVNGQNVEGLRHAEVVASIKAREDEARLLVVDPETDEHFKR
Chain of Inadl_6, Q8NI35 (Q8NI35 1058-1167): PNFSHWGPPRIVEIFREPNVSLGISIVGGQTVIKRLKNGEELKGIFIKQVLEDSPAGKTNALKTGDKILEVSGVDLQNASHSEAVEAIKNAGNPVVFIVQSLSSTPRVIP
Chain of GRIP2_5, Q9C0E4 (Q9C0E4 544-642): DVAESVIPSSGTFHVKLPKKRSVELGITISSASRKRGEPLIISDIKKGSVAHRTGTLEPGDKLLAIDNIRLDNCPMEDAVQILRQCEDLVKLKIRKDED
Chain of LAP2, Q96RT1 (Q96RT1 other isoform, or with tags, fused parts or gaps): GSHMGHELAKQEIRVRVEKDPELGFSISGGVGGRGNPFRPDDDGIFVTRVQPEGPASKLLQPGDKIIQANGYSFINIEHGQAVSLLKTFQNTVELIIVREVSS
Chain of DLG4_3, P78352 (P78352 306-403): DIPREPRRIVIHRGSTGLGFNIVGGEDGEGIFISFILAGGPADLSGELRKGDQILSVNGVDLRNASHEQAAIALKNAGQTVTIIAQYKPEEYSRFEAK
Chain of GRASP, Q7Z6J2 (Q7Z6J2 96-193): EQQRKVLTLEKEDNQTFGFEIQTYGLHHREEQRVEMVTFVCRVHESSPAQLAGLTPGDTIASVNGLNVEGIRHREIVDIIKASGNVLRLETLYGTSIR
Chain of Inadl_9, Q8NI35 (Q8NI35 1530-1615): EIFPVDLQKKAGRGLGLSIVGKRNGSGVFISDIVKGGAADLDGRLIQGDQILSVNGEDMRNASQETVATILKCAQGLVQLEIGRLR
Chain of LNX1_2, Q8TBB1 (Q8TBB1 371-470): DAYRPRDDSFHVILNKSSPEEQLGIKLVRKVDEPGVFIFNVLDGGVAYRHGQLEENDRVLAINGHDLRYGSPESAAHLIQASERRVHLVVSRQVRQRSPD
Chain of SCRIB_1, Q14160 (Q14160 718-814): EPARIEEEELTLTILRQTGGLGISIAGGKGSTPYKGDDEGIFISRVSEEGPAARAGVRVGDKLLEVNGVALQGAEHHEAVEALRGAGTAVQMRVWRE
Chain of MAST1, Q9Y2H9 (Q9Y2H9 962-1065): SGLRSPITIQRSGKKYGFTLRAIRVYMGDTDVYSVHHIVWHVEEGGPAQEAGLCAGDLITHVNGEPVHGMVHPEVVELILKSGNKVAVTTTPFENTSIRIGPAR
Chain of Inadl_2, Q8NI35 (Q8NI35 238-335): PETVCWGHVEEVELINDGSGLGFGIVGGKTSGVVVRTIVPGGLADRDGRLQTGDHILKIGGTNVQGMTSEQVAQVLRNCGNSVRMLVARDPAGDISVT
Chain of IL16_1, Q14005 (Q14005 210-306): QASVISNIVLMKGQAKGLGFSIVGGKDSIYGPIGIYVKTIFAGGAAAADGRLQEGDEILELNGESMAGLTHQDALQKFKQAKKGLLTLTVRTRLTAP
Chain of MAGI2_4, Q86UL8 (Q86UL8 772-865): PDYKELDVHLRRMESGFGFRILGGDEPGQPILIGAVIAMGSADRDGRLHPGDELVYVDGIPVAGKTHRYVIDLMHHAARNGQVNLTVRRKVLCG
Chain of IL16_4, Q14005 (Q14005 1229-1329): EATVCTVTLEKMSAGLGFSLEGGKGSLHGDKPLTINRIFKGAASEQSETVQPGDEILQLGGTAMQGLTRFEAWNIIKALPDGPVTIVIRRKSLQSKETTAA
Chain of HTRA1, Q92743 (Q92743 360-477): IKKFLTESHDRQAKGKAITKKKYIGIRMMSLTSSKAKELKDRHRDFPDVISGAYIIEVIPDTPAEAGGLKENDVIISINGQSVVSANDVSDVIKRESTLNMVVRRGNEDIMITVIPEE

| Binder | pKd (APBA2_1, Q99767) | pKd (APBA3_1, O96018) | pKd (DFNB31_2, Q9P202) | pKd (DFNB31_3, Q9P202) | pKd (DLG3_2, Q92796) | pKd (DLG3_3, Q92796) | pKd (DLG4_3, P78352) | pKd (GRASP, Q7Z6J2) | pKd (GRIP2_5, Q9C0E4) | pKd (HTRA1, Q92743) | pKd (HTRA3, P83110) | pKd (IL16_1, Q14005) | pKd (IL16_4, Q14005) | pKd (Inadl_2, Q8NI35) | pKd (Inadl_6, Q8NI35) | pKd (Inadl_9, Q8NI35) | pKd (LAP2, Q96RT1) | pKd (LNX1_2, Q8TBB1) | pKd (MAGI2_4, Q86UL8) | pKd (MAST1, Q9Y2H9) | further results |
| --- | --- | --- | --- | --- | --- | --- | --- | --- | --- | --- | --- | --- | --- | --- | --- | --- | --- | --- | --- | --- | --- |
| TGLWKHETTV [ADGRA3, Q8IWK6] | below the threshold | below the threshold | below the threshold | 3.85 | 5.25 | 4.77 | 4.94 | 3.55 | below the threshold | 4.32 | below the threshold | 4.09 | below the threshold | below the threshold | below the threshold | 3.74 | 4.32 | 3.8 | 4.77 | 4.78 | pKd (MPP6, Q9NZW5): below the threshold; pKd (NHERF2_2, Q15599): below the threshold; pKd (PARD3B_1, Q8TEW8): below the threshold; pKd (SCRIB_1, Q14160): 4.74; pKd (SNTA1, Q13424): 4.58; pKd (SNTG1, Q9NSN8): 4.46 |
| EKCGKEFSEF [PRKACA, P17612] | below the threshold | below the threshold | below the threshold | below the threshold | 4.11 | below the threshold | below the threshold | 4.16 | below the threshold | below the threshold | below the threshold | below the threshold | below the threshold | below the threshold | below the threshold | below the threshold | below the threshold | below the threshold | 3.62 | 4.21 | pKd (MPP6, Q9NZW5): below the threshold; pKd (NHERF2_2, Q15599): 4.18; pKd (PARD3B_1, Q8TEW8): 3.91; pKd (SCRIB_1, Q14160): below the threshold; pKd (SNTA1, Q13424): below the threshold; pKd (SNTG1, Q9NSN8): below the threshold |
| PYPTADHMLA [JUP, P14923] | below the threshold | below the threshold | below the threshold | 3.83 | 4.05 | below the threshold | below the threshold | below the threshold | below the threshold | 4.32 | below the threshold | below the threshold | below the threshold | below the threshold | below the threshold | below the threshold | below the threshold | below the threshold | below the threshold | below the threshold | pKd (MPP6, Q9NZW5): below the threshold; pKd (NHERF2_2, Q15599): below the threshold; pKd (PARD3B_1, Q8TEW8): below the threshold; pKd (SCRIB_1, Q14160): below the threshold; pKd (SNTA1, Q13424): below the threshold; pKd (SNTG1, Q9NSN8): below the threshold |
| QKAPTKEFYA [SDC2, P34741] | below the threshold | below the threshold | below the threshold | 3.91 | 4.18 | below the threshold | below the threshold | below the threshold | below the threshold | 4.47 | 4.31 | below the threshold | below the threshold | below the threshold | below the threshold | below the threshold | below the threshold | 3.5 | below the threshold | below the threshold | pKd (MPP6, Q9NZW5): below the threshold; pKd (NHERF2_2, Q15599): below the threshold; pKd (PARD3B_1, Q8TEW8): 4.39; pKd (SCRIB_1, Q14160): below the threshold; pKd (SNTA1, Q13424): below the threshold; pKd (SNTG1, Q9NSN8): below the threshold |
